Results: US20160115245A1 (VIB VZW, published 2016)

What was measured:
[1] = molecular target: T1, recombinant human superoxide dismutase [Cu-Zn] (SOD1), wild type (human, UniProt P00441 2-154); assay: isothermal titration calorimetry, 25 C
T1 construct: Used immobilised in the dot blot and in solution in ITC; The construct is not described further; also called recombinant SOD1; SOD1 WT

[2] = molecular target: T1, recombinant human superoxide dismutase …; assay: isothermal titration calorimetry, 25 C; remark: listed apart in the source
[3] = molecular target: T2, SOD1-CFP (human SOD1 fused to CFP, expressed in HeLa cells) (human, UniProt P00441 2-154); assay: Ni-agarose pull-down of HA-Myc-His6 tagged nanobody from co-transfected HeLa cells, blot anti-CFP
T2 construct: not shown: CFP of pCDNA3-CFP (Addgene #13030)
T2 sequence (P00441 2-154): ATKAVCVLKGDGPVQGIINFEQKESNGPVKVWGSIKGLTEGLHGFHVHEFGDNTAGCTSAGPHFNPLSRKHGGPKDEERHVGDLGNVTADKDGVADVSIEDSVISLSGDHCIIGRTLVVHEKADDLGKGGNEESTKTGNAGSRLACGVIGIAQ

T1 sequence (P00441 2-154 limits assumed): as the sequence (P00441 2-154) above

Row | Kd [1] [nM] | ΔH [2] [kcal/mol] | ΔS [2] [cal/mol/deg] | binding result [3] | Binder
1 | ~1000 | -16 | -23 |  | Nb2, His6-tagged, expressed in E. coli (pET30a) (VHH, Dromedary-derived nanobody; also called SOD1 nanobody from dromedary library; not shown: His6 tag from pET30a (BamHI/XhoI)) VHH: QVQLQESGGGSVQAGGSLRLACVASGGDTRPYITYWMGWYRQAPGKEREGVATIYTGGSGTYYSDSVEGRFTISQDKAQRTVYLQMNDLKPEDTAMYYCAAGNGALPPGRRLSPQNMDTWGPGTQVTVSS
2 |  |  |  | no binding | Nb4 (VHH, Same nanobody as m4, but in the HeLa-expressed HA-Myc-His6 format of m6-m8; also called Nb4, HA-Myc-His6 tagged, expressed in HeLa cells) VHH: QVQLQESGGGSVQTGGSLRLSCAASGYTFSSYCMGWFRQAPGKERELVSTIISDGSTYYADSVKGRFTISQDNAKNTVYLQMNNLKAEDTAIYYCAARSGGVCSGRASRYNYWGQGTQVTVSS
3 | ~200 | -11 | -17 |  | Nb1, His6-tagged, expressed in E. coli (pET30a) (VHH, Alpaca-derived nanobody; also called SOD1 nanobody from alpaca library; not shown: His6 tag and the pET30a vector residues around it) VHH: QVQLQESGGGLVQPGGSLRLSCRASETLFSLYAMGWYRQAPGKQPELIATISGGGEGTGNYADPVKGRFTISRNNADNMVFLQMNNLKPEDTAVYYCNVYGTNLAPWGQGTQVTVSS
